koff and kon data for seven molecules are collected here from patent US20100098708A1.

A word on the koff: it is the first-order rate constant of dissociation. Usually kon stands for the rate constant with which the complex forms.

The target of the experiment is RSV F protein (immobilised antigen of Example 6.1) (respiratory syncytial virus). Nature of the experiment: BIAcore. (In general: Surface plasmon resonance follows binding to a sensor surface in real time, without labels.)

Changes are numbered by the printed parent chain. “And” between values parts separate entries of the source, which are not always exact repeats. Equal entries are not always repeated.

Chain of RSV F protein (immobilised antigen of Example 6.1) (respiratory syncytial virus) (P03420 26-524): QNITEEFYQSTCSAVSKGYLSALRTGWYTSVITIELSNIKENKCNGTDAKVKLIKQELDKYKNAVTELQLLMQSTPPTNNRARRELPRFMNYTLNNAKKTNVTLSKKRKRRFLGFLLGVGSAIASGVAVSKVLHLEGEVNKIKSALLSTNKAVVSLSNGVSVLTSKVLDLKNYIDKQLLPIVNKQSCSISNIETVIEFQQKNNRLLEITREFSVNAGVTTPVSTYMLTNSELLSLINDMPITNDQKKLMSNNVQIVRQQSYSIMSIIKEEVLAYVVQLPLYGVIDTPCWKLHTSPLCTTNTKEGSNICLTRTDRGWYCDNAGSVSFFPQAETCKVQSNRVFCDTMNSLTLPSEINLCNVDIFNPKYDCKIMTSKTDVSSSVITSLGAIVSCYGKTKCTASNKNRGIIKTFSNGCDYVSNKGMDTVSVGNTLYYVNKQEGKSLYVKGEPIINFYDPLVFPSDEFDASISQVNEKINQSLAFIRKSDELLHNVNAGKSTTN

B1: H3-3F4 Fab (Fab, V domains shown)
VH: QVTLRESGPALVKPTQTLTLTCTFSGFSLSTAGMSVGWIRQPPGKALEWLADIWWDDKKDYNPSLKSRLTISKDTSKNQVVLKVTNMDPADTATYYCARDMIFNWYFDVWGQGTTVTVSS
VL: DIQMTQSPSTLSASVGDRVTITCSASSSVGYMHWYQQKPGKAPKLLIYDTFKLASGVPSRFSGSGSGTEFTLTISSLQPDDFATYYCFQGSGYPFTFGGGTKVEIK
On to B1, for which the off-rate (koff) was 0.000445 s⁻¹ and 0.000402 s⁻¹.

B2: Y10H6 Fab (Fab, V domains shown)
VH: B1 VH
VL: B1 VL with F51R, K52Y, A54S
B2: the koff worked out at 0.000462 s⁻¹ and the kon was 757000 M⁻¹ s⁻¹.

B3: 6H8 Fab (Fab, V domains shown)
VH: B1 VH with F103T, W105F
VL: B1 VL with A54T
Consider B3, for which the koff was 0.000178 s⁻¹ and 0.000473 s⁻¹; the association rate constant (kon) was 314000 M⁻¹ s⁻¹ and 444000 M⁻¹ s⁻¹.

B4: DG (aka D95/G93) Fab (Fab, V domains shown)
VH: B1 VH with F103T, W105F
VL: B1 VL
As to B4, the koff was 0.000167 s⁻¹ and 0.000444 s⁻¹.

B5: L1-7E5 Fab (Fab, V domains shown)
VH: B1 VH with F103T, W105F
VL: B1 VL with S28R
As to B5, the koff was 0.000192 s⁻¹ and 0.000331 s⁻¹ and 0.000229 s⁻¹.

B6: M3H9 Fab (Fab, V domains shown)
VH: B1 VH
VL: B1 VL with F51Y, L53Q, A54T
Regarding B6, the off-rate constant (koff) was 0.000338 s⁻¹ and the kon stood at 605000 M⁻¹ s⁻¹.

B7: P12f4 Fab (Fab, V domains shown)
VH: B1 VH with A32P, D57G, D60H, S67D, W105F
VL: B1 VL with A25L, S28R, F51R, K52G, A54P
Consider B7, for which the koff came to 0.000299 s⁻¹ and the kon was 527000 M⁻¹ s⁻¹.
